Results reported in US20220119789A1.

Target: Trx-VL(NP)-GUS(IV-5)KW (Escherichia coli)
Assay: cell-based or functional assay

In the case of PentaHis antibody (QIAGEN), the average S/B ratio in 11 minutes after the beginning of reaction (GUS activity) is reported as 13 and the average S/B ratio in 20 minutes after the beginning of reaction (GUS activity) is reported as 42.3.
